Experimental findings from patent US10428140B2, “Anti-EphA4 antibody” (EISAI R&D MANAGEMENT CO., LTD., priority 2015, dated 2019) are described below.

The test system of this test is mouse Eph receptor (EphA1-A8, A10, EphB1-B4, B6). The test can be described thus: Selectivity ELISA for mouse Eph receptor family. It is filed as binding. The settings on record: antibody 10 μg/mL. An excerpt:
According to the method described in Example 1, a DNA sequence encoding the signal sequence and the extracellular region of each mouse Eph receptor (EphA1, EphA3, EphA4, EphA5, EphA6, EphA7, EphA8, EphA10, EphB1, EphB2, EphB3, EphB4, and EphB6) was amplified by RT-PCR using tissue-derived total RNA and cloned into a pENTR1A vector (Invitrogen/Life Technologies) having a DNA sequence encoding a human IgG1 Fc region and histidine tag. Next, the DNA sequence encoding the signal sequence and the extracellular region of each mouse Eph receptor (EphA1, EphA3, EphA4, EphA5, EphA6, EphA7, EphA8, EphA10, EphB1, EphB2, EphB3, EphB4, and EphB6), Fc, and histidine tag was transferred to a pcDNA3.1_rfcB vector through LR reaction using Gateway System (Invitrogen/Life Technologies) to construct each mouse Eph receptor extracellular region-Fc-His protein expression vector. […]
Antibody A was evaluated for its binding activity against each mouse Eph receptor according to the following steps.
Each well of a 96-well plate (Nunc) was coated with a donkey anti-human IgG antibody (Jackson ImmunoResearch Laboratories). […] The absorbance at 450 nm was read using a microplate reader (PerkinElmer).

B1: antibody A: mouse anti-EphA4 monoclonal antibody, IgG1/κ; heavy chain variable region SEQ ID NO: 11, light chain variable region SEQ ID NO: 13 (antibody, listed as Mus musculus, V domains shown)
VH: QIQLVQSGPELKKPGETVKISCKASGYTFTDYSMHWVKQAPGKGLKWMGWINTETGEPTYADDFKGRFAFSLETSASTAYLQINNLKNEDTATYFCARIPLYYYGSRYWYFDVWGAGTTVTVSS
VL: DIQMTQSPASLSVSVGETVTITCRASENIYRNLAWYQQKQGKSPQLLVYAATNLADGVPSRFSGSGSGTQYSLKINSLQSEDFGSYYCQHFWGTPWTFGGGTKLEIK
For B1, the “binding specificity among mouse Eph receptor family (in words)” value is reported as “specifically had reaction activity only with mouse EphA4”.
